Experimental findings from paper PMC9887155 (2023) are described below.

For assay [1], the target named is T1, Gtα/Giα with a C-terminus truncated by six amino acids (European robin (Erithacus rubecula)). Put plainly: SPR; two-state reaction model, kd1.
Assay [2] deals with T1, Gtα/Giα with a C-terminus truncated by …. Put plainly: SPR; two-state reaction model, first step (kd1/ka1).

Ends that are not written are not given here.

On to CGAGAWERWFVVCKPFGNIKFDGK-NH2 (cysteine pairing not given here) [peptide LWO2 (second cytoplasmic loop of long-wavelength-sensitive opsin of European robin)], for which the koff in assay [1] is 0.00434 s⁻¹. Besides, in assay [2], the affinity, expressed as Kd, was 933 nM.
